Changes are numbered by the printed parent chain.
T1: cynomolgus monkey FcγRIIIaS extracellular domain with C-terminal His-tag (cynomolgus monkey, UniProt Q8SPW2 21-206 at identity 1.00))
T1 construct: also called cyno FcgRIIIaS; cynoFcγRIIIaS
T1 chain: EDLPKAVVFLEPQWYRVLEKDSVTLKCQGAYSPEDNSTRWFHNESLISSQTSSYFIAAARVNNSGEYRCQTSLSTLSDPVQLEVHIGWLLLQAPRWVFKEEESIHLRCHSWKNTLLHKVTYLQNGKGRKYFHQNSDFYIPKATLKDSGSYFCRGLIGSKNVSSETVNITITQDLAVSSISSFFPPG

T2: human FcγRIIb extracellular domain with C-terminal His-tag (human, UniProt P31994 43-217)
T2 construct: also called human FcgRIIb
T2 sequence: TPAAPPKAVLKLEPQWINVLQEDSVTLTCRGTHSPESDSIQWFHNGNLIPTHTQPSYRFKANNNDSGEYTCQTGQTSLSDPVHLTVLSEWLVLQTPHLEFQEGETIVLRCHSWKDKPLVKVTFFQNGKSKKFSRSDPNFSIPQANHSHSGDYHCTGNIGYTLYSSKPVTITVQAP

T3: human FcγRIIaR extracellular domain with C-terminal His-tag (human, UniProt P12318 34-217)
T3 construct: also called human FcgRIIaR; FcγRIIa (type R)
T3 chain: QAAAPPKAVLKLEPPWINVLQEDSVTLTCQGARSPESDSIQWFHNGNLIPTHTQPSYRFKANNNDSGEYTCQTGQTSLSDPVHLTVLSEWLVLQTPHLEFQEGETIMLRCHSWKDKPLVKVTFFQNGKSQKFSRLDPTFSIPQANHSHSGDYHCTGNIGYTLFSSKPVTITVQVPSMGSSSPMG

T4: cynomolgus monkey FcγRIIa2 extracellular domain with C-terminal His-tag (cynomolgus monkey)
T4 construct: also called cyno FcgRIIa2; cynoFcγRIIa2
T4 chain: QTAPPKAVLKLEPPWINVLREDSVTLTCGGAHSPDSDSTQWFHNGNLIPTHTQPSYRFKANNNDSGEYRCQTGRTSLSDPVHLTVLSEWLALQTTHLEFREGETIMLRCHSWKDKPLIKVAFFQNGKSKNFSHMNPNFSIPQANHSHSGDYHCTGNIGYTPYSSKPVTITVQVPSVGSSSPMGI

T5: human FcγRIIaH extracellular domain with C-terminal His-tag (human, UniProt P12318 34-217)
T5 construct: also called human FcgRIIaH; FcγRIIa (type H)
T5 sequence: T3 chain with R134H

T6: cynomolgus monkey FcγRIIb extracellular domain with C-terminal His-tag (cynomolgus monkey)
T6 construct: also called cyno FcgRIIb; cynoFcγRIIb
T6 chain: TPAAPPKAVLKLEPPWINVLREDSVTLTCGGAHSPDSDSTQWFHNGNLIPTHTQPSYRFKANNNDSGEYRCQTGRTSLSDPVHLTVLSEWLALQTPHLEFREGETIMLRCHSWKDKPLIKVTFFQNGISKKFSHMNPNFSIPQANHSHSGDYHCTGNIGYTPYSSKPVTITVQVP

T7: cynomolgus monkey FcγRIIa1 extracellular domain with C-terminal His-tag (cynomolgus monkey)
T7 construct: also called cyno FcgRIIa1; cynoFcγRIIa1
T7 chain: T4 chain with T95P, A121T, K127I, S128A, N130K, N135D, Q142R

B1: M103205H795-MY209/M103202L889-SK1 (antibody, human IgG1, kappa)
heavy: QVTLKESGPVLVKPTETLTLTCTVSGIDLSHDDISWVRQAPGKGLEWVGIISYAGSTYYASWAKGRLTISKDTSKNQVVLTMTNMDPVDTATYYCARGVPAYSHGGDLWGQGTLVTVSSASTKGPSVFPLAPSSKSTSGGTAALGCLVKDYFPEPVTVSWNSGALTSGVHTFPAVLQSSGLYSLSSVVTVPSSSLGTQTYICNVNHKPSNTKVDKKVEPKSCDKTHTCPPCPAPELLNGPSVFLFPPKPKDTLMISRTPEVTCVVVDVSDEDPEVKFNWYVDGVEVHNAKTKPREELYNSTYRVVSVLTVLHQDWLNGKEYKCKVSNTALPKPIEKTISKAKGQPREPQVYTLPPSREEMTKNQVSLTCLVKGFYPSDIAVEWESNGQPENNYKTTPPVLDSDGSFFLYSKLTVDKSRWQQGNVFSCSVMHEALHNHYTQKSLSLSP
light: DIVMTQSPATLSLSPGERATLSCTSSQSVYHANWLSWFQQKPGQPPKLLIYWASTLAYGVPSRFSGSGSGTDFTLTISSLQPEDAATYYCAGGYGGGRYAFGQGTKVEIKRTVAAPSVFIFPPSDEQLKSGTASVVCLLNNFYPREAKVQWKVDNALQSGNSQESVTEQDSKDSTYSLSSTLTLSKADYEKHKVYACEVTHQGLSSPVTKSFNRGEC
notes: Substitutions introduced into M103205H795-SG1, expressed with M103202L889-SK1 as light chain; EU numbering
B2: M103205H795-MY386/M103202L889-SK1 (antibody, human IgG1, kappa)
heavy: B1 heavy with N238L
light: B1 light
notes: as for B1
B3: M103205H795-MY380/M103202L889-SK1 (antibody, human IgG1, kappa)
heavy: B1 heavy with D270E, L297Q, T328K, P398K
light: B1 light
notes: as for B1
B4: M103205H795-MY339/M103202L889-SK1 (antibody, human IgG1, kappa)
heavy: B1 heavy with N238L, L297Q, P398K
light: B1 light
notes: as for B1
B5: M103205H795-MY283/M103202L889-SK1 (antibody, human IgG1, kappa)
heavy: B1 heavy with N238T, T328K
light: B1 light
notes: as for B1
B6: M103205H795-MY340/M103202L889-SK1 (antibody, human IgG1, kappa)
heavy: B1 heavy with N238L, T328K, P398K
light: B1 light
notes: as for B1
B7: M103205H795-MY341/M103202L889-SK1 (antibody, human IgG1, kappa)
heavy: B1 heavy with N238L, P398K
light: B1 light
notes: as for B1
B8: M103205H795-MY342/M103202L889-SK1 (antibody, human IgG1, kappa)
heavy: B1 heavy with N238L, T328K, P398M
light: B1 light
notes: as for B1
B9: M103205H795-MY387/M103202L889-SK1 (antibody, human IgG1, kappa)
heavy: B1 heavy with N238T, S241V, L297Q, T328K
light: B1 light
notes: as for B1

Target: T1, cynomolgus monkey FcγRIIIaS …
Test: SPR (BIACORE), antibody captured, FcgR analyte

Kd | Binder
2.2 µM | B1
2.5 µM | B2
2.8 µM | B3
0.76 µM | B4
2.2 µM | B5
2.3 µM | B6
0.34 µM | B7
2.6 µM | B8
2.5 µM | B9

What follows are binders tested against T2, human FcγRIIb extracellular domain with … (assay: SPR (BIACORE), antibody captured, FcgR analyte).

Kd | Binder
0.5 µM | B1
4.6 µM | B2
0.48 µM | B3
2.8 µM | B4
1.8 µM | B5
3.3 µM | B6
1.8 µM | B7
3.9 µM | B8
1.6 µM | B9

Target: T3, human FcγRIIaR extracellular domain …
Test: SPR (BIACORE), antibody captured, FcgR analyte

Kd | Binder
0.88 µM | B1
1.7 µM | B2
0.85 µM | B3
0.53 µM | B4
0.35 µM | B5
0.83 µM | B6
0.42 µM | B7
1 µM | B8
0.2 µM | B9

Target: T4, cynomolgus monkey FcγRIIa2 …
Test: SPR (BIACORE), antibody captured, FcgR analyte

Kd | Binder
0.69 µM | B1
5.6 µM | B2
1 µM | B3
3 µM | B4
1.6 µM | B5
4.9 µM | B6
2.9 µM | B7
8.5 µM | B8
19 µM | B9

What follows are binders tested against T5, human FcγRIIaH extracellular domain … (assay: SPR (BIACORE), antibody captured, FcgR analyte).

Kd | Binder
0.57 µM | B1
0.81 µM | B2
0.43 µM | B3
0.41 µM | B4
0.14 µM | B5
0.31 µM | B6
0.26 µM | B7
0.37 µM | B8
0.34 µM | B9

Target: T6, cynomolgus monkey FcγRIIb extracellular …
Test: SPR (BIACORE), antibody captured, FcgR analyte

Kd | Binder
0.19 µM | B1
1.5 µM | B2
0.29 µM | B3
0.75 µM | B4
0.42 µM | B5
1.1 µM | B6
0.6 µM | B7
1.3 µM | B8
0.83 µM | B9

Target: T7, cynomolgus monkey FcγRIIa1 …
Test: SPR (BIACORE), antibody captured, FcgR analyte

Kd | Binder
0.63 µM | B1
5.2 µM | B2
3.4 µM | B4
1.4 µM | B5
4.3 µM | B6
2.5 µM | B7
5.1 µM | B8
2.3 µM | B9
